Data taken from the supplement of paper PMC9233669.
This sample holds only a part of the variants without activity.

What was measured:
biotinyl-Phe-oxazolone = experiment: self-aminoacylation, catalytic enhancement (BFO) (fold over background); higher = more active; k-Seq, kA / k0A0; sequences stand for … in GGGAAUGGAUCCACAUCUACGAAUUC…UUCACUGCAGACUUGACGAAGCUG
Procedure, shortened: (§1)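 Each biotinyl-aminoacyl-oxazolone, at 2–1250 μM, was incubated with mutagenized RNA pools (0.43 μM) carrying a 21-nt variable region. The 50 μL reactions contained HEPES/NaCl/KCl/MgCl2/CaCl2 buffer with 5% acetonitrile at pH 6.9–7.0 and ran for 90 minutes at room temperature. After streptavidin capture, RNA was measured by qPCR in triplicate and by Illumina sequencing, and catalytic enhancement was calculated as median kA over the uncatalyzed rate from a pseudo-first-order fit of per-sequence fraction reacted.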

biotinyl-Leu-oxazolone = experiment: self-aminoacylation, catalytic enhancement (BLO) (fold over background); higher = more active; k-Seq, kA / k0A0; sequences stand for … in GGGAAUGGAUCCACAUCUACGAAUUC…UUCACUGCAGACUUGACGAAGCUG
Procedure, shortened: as §1

biotinyl-Ile-oxazolone = experiment: self-aminoacylation, catalytic enhancement (BIO) (fold over background); higher = more active; k-Seq, kA / k0A0; sequences stand for … in GGGAAUGGAUCCACAUCUACGAAUUC…UUCACUGCAGACUUGACGAAGCUG
Procedure, shortened: as §1

biotinyl-Trp-oxazolone = experiment: self-aminoacylation, catalytic enhancement (BWO) (fold over background); higher = more active; k-Seq, kA / k0A0; sequences stand for … in GGGAAUGGAUCCACAUCUACGAAUUC…UUCACUGCAGACUUGACGAAGCUG
Procedure, shortened: as §1

biotinyl-Met-oxazolone = experiment: self-aminoacylation, catalytic enhancement (BMO) (fold over background); higher = more active; k-Seq, kA / k0A0; sequences stand for … in GGGAAUGGAUCCACAUCUACGAAUUC…UUCACUGCAGACUUGACGAAGCUG
Procedure, shortened: as §1

biotinyl-Val-oxazolone = experiment: self-aminoacylation, catalytic enhancement (BVO) (fold over background); higher = more active; k-Seq, kA / k0A0; sequences stand for … in GGGAAUGGAUCCACAUCUACGAAUUC…UUCACUGCAGACUUGACGAAGCUG
Procedure, shortened: as §1

Row | Sequence | self-aminoacylation (biotinyl-Phe-oxazolone) | self-aminoacylation (biotinyl-Leu-oxazolone) | self-aminoacylation (biotinyl-Ile-oxazolone) | self-aminoacylation (biotinyl-Trp-oxazolone) | self-aminoacylation (biotinyl-Met-oxazolone) | self-aminoacylation (biotinyl-Val-oxazolone)
1 | CUACUUCCAACAAUCGGGCUG [Fam1A.1 aminoacylation ribozyme variant] | 0.889 | 1.28 | 1.59 | 0.982 | 2.11 | 1.27
2 | CUACUUCCAACAAUGGGUCUG [Fam1A.1 aminoacylation ribozyme variant] | 0.635 | 0.795 | 0.951 | 0.789 | 0.932 | 0.835
3 | CUACUUCCAACAAUUGGUCUG [Fam1A.1 aminoacylation ribozyme variant] | 0.55 | 0.776 | 0.817 | 0.536 | 0.718 | 0.839
4 | CUACUUCCACCAAUCGGUCUG [Fam1A.1 aminoacylation ribozyme variant] | 0.84 | 0.793 | 0.912 | 0.387 | 0.684 | 0.877
5 | CUACUUCCUACAAUCGGUCUG [Fam1A.1 aminoacylation ribozyme variant] | 0.51 | 0.671 | 0.76 | 0.511 | 0.835 | 0.801
6 | CUACUUCGAACAAUAGGUCUG [Fam1A.1 aminoacylation ribozyme variant] | 0.503 | 0.461 | 0.547 | 0.421 | 0.471 | 0.745
7 | CUACUUCGACCAAUCGGUCUG [Fam1A.1 aminoacylation ribozyme variant] | 0.674 | 0.979 | 0.854 | 0.379 | 0.856 | 0.908
8 | CUACUUCGGACAAUCGGUCUG [Fam1A.1 aminoacylation ribozyme variant] | 0.631 | 0.867 | 0.815 | 0.75 | 0.928 | 0.923
9 | CUACUUCUAACAAUCGCUCUG [Fam1A.1 aminoacylation ribozyme variant] | 0.385 | 0.602 | 0.612 | 0.498 | 0.553 | 0.559
10 | CUACUUCUAACAAUCGGUCCG [Fam1A.1 aminoacylation ribozyme variant] | 0.505 | 0.799 | 0.708 | 0.63 | 0.765 | 0.621
11 | CUACUUCUAACAGUCGGUCUG [Fam1A.1 aminoacylation ribozyme variant] | 0.402 | 0.611 | 0.521 | 0.349 | 0.672 | 0.597
12 | CUACUUGAAACAAUCGGACUG [Fam1A.1 aminoacylation ribozyme variant] | 0.551 | 0.944 | 0.922 | 0.651 | 0.782 | 0.786
13 | CUACUUGAAACAAUCGGCCUG [Fam1A.1 aminoacylation ribozyme variant] | 0.788 | 1.45 | 1.84 | 1.38 | 1.96 | 1.68
14 | CUACUUGAAACAAUCGGUCUC [Fam1A.1 aminoacylation ribozyme variant] | 0.658 | 0.657 | 0.789 | 0.561 | 0.827 | 0.688
15 | CUACUUGAAACAAUCGGUUUG [Fam1A.1 aminoacylation ribozyme variant] | 0.458 | 0.89 | 0.907 | 0.944 | 0.938 | 0.77
16 | CUACUUGAAACUAUCGGUCUG [Fam1A.1 aminoacylation ribozyme variant] | 0.599 | 0.941 | 1.03 | 0.685 | 0.986 | 0.975
17 | CUACUUGAAAGAAUCGGUCUG [Fam1A.1 aminoacylation ribozyme variant] | 0.599 | 0.693 | 0.869 | 0.731 | 0.974 | 0.771
18 | CUACUUGAGACAAUCGGUCUG [Fam1A.1 aminoacylation ribozyme variant] | 0.89 | 0.962 | 0.884 | 1.1 | 0.94 | 1.01
19 | CUACUUGUAACAAUCGGUCUG [Fam1A.1 aminoacylation ribozyme variant] | 0.824 | 0.678 | 0.651 | 0.573 | 0.806 | 0.658
20 | CUACUUUAAACAAUCGGGCUG [Fam1A.1 aminoacylation ribozyme variant] | 0.648 | 1.07 | 1.2 | 0.746 | 1.25 | 1.06
21 | CUACUUUAAACAAUCGGUCGG [Fam1A.1 aminoacylation ribozyme variant] | 0.521 | 0.963 | 0.945 | 0.769 | 1.08 | 0.911
22 | CUACUUUAAACAAUCGGUGUG [Fam1A.1 aminoacylation ribozyme variant] | 0.998 | 0.855 | 0.722 | 0.673 | 0.925 | 0.737
23 | CUACUUUAAACAAUCGGUUUG [Fam1A.1 aminoacylation ribozyme variant] | 0.922 | 0.776 | 0.824 | 0.724 | 0.786 | 0.8
24 | CUACUUUAAACGAUCGGUCUG [Fam1A.1 aminoacylation ribozyme variant] | 0.589 | 0.863 | 0.808 | 0.759 | 0.885 | 0.844
25 | CUACUUUAACCAAUCGGUCUG [Fam1A.1 aminoacylation ribozyme variant] | 1.22 | 0.662 | 0.883 | 0.949 | 0.779 | 0.842
26 | CUACUUUAAGCAAUCGGUCUG [Fam1A.1 aminoacylation ribozyme variant] | 0.5 | 0.69 | 0.721 | 0.51 | 0.749 | 0.685

Row | Sequence | self-aminoacylation (biotinyl-Phe-oxazolone) | self-aminoacylation (biotinyl-Leu-oxazolone) | self-aminoacylation (biotinyl-Ile-oxazolone) | self-aminoacylation (biotinyl-Trp-oxazolone) | self-aminoacylation (biotinyl-Met-oxazolone) | self-aminoacylation (biotinyl-Val-oxazolone)
27 | CUACUUUAAUCAAUCGGUCUG [Fam1A.1 aminoacylation ribozyme variant] | 1.43 | 0.78 | 0.955 | 0.755 | 0.892 | 0.915
28 | CUAGUUCAAAAAAUCGGUCUG [Fam1A.1 aminoacylation ribozyme variant] | 2.72 | 0.838 | 0.934 | 2.08 | 0.842 | 0.752
29 | CUAGUUCUAACAAUCGGUCUG [Fam1A.1 aminoacylation ribozyme variant] | 0.672 | 0.849 | 0.831 | 0.588 | 0.762 | 0.762
30 | CUAUUUCAAACAAUCGGUCUC [Fam1A.1 aminoacylation ribozyme variant] | 7.11 | 0.785 | 0.818 | 3.67 | 0.775 | 0.835
31 | CUAUUUCAAACAUUCGGUCUG [Fam1A.1 aminoacylation ribozyme variant] | 0.835 | 1.16 | 1.18 | 1.16 | 1.3 | 1.3
32 | CUCCACCUAGGUCAUCGGGUG [Fam2.2 aminoacylation ribozyme variant] | 36.3 | 5.74 | 3.95 | 7.04 | 5.98 | 5.19
33 | CUCCUUCAAACAAUCGCUCUG [Fam1A.1 aminoacylation ribozyme variant] | 2.77 | 0.78 | 0.73 | 2.01 | 0.531 | 0.666
34 | CUCCUUCAAACAAUGGGUCUG [Fam1A.1 aminoacylation ribozyme variant] | 0.816 | 1.05 | 0.855 | 0.877 | 0.901 | 0.982
35 | CUCCUUCAAACCAUCGGUCUG [Fam1A.1 aminoacylation ribozyme variant] | 1.69 | 0.781 | 0.815 | 0.905 | 0.805 | 0.977
36 | CUCCUUCAACCAAUCGGUCUG [Fam1A.1 aminoacylation ribozyme variant] | 29.5 | 1.33 | 1.11 | 19.8 | 1.1 | 1.16
37 | CUCCUUCAAGCAAUCGGUCUG [Fam1A.1 aminoacylation ribozyme variant] | 14.1 | 1.58 | 1.09 | 10.2 | 1.2 | 1.09
38 | CUGACCCUGGUCAUCGAGUGA [Fam2.1 aminoacylation ribozyme variant] | 7.35 | 7.94 | 3.64 | 8.61 | 7.22 | 4.5
39 | CUGCUGCAAACAAUCGGUCUG [Fam1A.1 aminoacylation ribozyme variant] | 1.81 | 1.31 | 1.05 | 1.53 | 0.995 | 1.07
40 | CUGCUUCAAACAAUCAGUCUG [Fam1A.1 aminoacylation ribozyme variant] | 40.5 | 1.21 | 0.738 | 12.5 | 0.723 | 0.77
41 | CUGCUUCAAACAAUCGGCCUG [Fam1A.1 aminoacylation ribozyme variant] | 449 | 6.94 | 3.07 | 162 | 3.69 | 3.35
42 | CUGCUUCAAACAAUCGGUCUG [Fam1A.1 aminoacylation ribozyme variant] | 125 | 2.83 | 1.29 | 53.5 | 1.72 | 1.35
43 | CUGCUUCAAACAUUCGGUCUG [Fam1A.1 aminoacylation ribozyme variant] | 1.11 | 1.25 | 1.29 | 0.813 | 1.12 | 1.62
44 | CUGCUUCAACCAAUCGGUCUG [Fam1A.1 aminoacylation ribozyme variant] | 79.4 | 2.45 | 1.31 | 43.2 | 1.41 | 1.38
45 | CUUACACUGGUCAUCGAGUGA [Fam2.1 aminoacylation ribozyme variant] | 10.2 | 4.41 | 2.65 | 4.94 | 4.19 | 2.69
46 | CUUACCCGGGUCAUCGAGUGA [Fam2.1 aminoacylation ribozyme variant] | 36.5 | 7.48 | 3.03 | 7.34 | 5.92 | 3.48
47 | CUUACCCUCGUCAUCGAGUGA [Fam2.1 aminoacylation ribozyme variant] | 3.66 | 2.47 | 1.82 | 3.21 | 2.42 | 1.92
48 | CUUACCCUGGUCAACGAGUGA [Fam2.1 aminoacylation ribozyme variant] | 15.8 | 5.08 | 2.56 | 6.73 | 5.06 | 3.29
49 | CUUACCCUGGUCACCGAGUGA [Fam2.1 aminoacylation ribozyme variant] | 57.1 | 8.9 | 3.87 | 8.62 | 9.14 | 4.49
50 | CUUACCCUGGUCAUCCAGUGA [Fam2.1 aminoacylation ribozyme variant] | 16.9 | 4.63 | 2.37 | 5.03 | 4.04 | 2.77
51 | CUUACCCUGGUCAUCGCGUGA [Fam2.1 aminoacylation ribozyme variant] | 148 | 18.9 | 7.79 | 18.5 | 18.7 | 10.9
